Results on one molecule are retold here after doi:10.1101/647354 (bioRxiv, 2019).

The target of the experiment is T1, complement C5 (human, UniProt P01031 19-673; P01031 678-1676).
T1 construct: also called human C5; source: endogenous, human serum
Briefly: cryo-EM structure. The following applies: both partners purified.

T1 sequence (P01031 19-673, chain 1 of 2): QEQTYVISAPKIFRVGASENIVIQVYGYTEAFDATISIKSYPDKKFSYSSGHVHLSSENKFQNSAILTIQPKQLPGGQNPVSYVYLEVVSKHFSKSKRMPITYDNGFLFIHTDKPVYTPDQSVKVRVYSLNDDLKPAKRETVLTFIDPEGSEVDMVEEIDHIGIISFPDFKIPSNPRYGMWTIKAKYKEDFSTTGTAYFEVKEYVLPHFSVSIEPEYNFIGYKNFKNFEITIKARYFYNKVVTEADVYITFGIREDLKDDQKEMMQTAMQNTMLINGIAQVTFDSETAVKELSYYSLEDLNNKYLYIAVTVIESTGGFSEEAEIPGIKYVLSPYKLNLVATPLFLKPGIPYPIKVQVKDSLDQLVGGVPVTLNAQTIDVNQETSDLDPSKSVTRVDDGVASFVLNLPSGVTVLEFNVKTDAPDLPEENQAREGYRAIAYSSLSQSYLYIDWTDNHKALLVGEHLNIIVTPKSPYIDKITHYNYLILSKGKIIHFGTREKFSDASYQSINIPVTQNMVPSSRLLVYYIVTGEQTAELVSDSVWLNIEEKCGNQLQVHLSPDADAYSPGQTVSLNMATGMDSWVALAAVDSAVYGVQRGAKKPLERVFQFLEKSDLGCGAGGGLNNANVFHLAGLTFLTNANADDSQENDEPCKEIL
T1 sequence (P01031 678-1676, chain 2 of 2): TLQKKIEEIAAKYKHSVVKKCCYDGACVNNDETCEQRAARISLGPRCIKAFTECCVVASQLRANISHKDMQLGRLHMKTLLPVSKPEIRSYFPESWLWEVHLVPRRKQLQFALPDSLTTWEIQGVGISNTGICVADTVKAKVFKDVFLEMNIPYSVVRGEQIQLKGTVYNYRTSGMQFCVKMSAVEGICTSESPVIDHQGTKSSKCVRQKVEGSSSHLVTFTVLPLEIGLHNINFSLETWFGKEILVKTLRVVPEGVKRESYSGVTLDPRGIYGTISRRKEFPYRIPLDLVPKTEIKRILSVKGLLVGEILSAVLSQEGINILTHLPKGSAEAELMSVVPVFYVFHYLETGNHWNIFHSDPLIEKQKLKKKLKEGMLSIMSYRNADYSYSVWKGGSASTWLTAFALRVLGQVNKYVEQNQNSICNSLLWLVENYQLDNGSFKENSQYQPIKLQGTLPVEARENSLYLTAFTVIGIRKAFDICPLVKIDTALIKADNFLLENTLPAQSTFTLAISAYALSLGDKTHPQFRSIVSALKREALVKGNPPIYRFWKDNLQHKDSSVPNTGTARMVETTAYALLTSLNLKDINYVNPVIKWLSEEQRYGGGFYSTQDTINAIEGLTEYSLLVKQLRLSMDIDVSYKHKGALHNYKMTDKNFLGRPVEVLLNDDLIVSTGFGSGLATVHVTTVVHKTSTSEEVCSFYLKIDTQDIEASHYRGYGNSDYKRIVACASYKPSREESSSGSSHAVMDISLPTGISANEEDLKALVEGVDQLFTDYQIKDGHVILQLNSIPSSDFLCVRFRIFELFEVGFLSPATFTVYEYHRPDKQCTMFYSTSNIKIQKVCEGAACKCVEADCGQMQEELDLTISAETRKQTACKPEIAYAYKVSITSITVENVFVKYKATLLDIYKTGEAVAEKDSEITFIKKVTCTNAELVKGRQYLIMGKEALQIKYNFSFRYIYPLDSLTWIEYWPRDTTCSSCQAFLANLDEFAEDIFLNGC

B1: OmCI (natural protein)
chain: DSESDCTGSEPVDAFQAFSEGKEAYVLVRSTDPKARDCLKGEPAGEKQDNTLPVMMTFKNGTDWASTDWTFTLDGAKVTATLGNLTQNREVVYDSQSHHCHVDKVEKEVPDYEMWMLDAGGLEVEVECCRQKLEELASGRNQMYPHLKDC
notes: also called Coversin; His-tagged OmCI
For B1, the binding result was “binds”.
